Results as given in publication PMC10110952.
pKd: −log10 of the molar value.

Legend:
[1] = biological target: PAM, plasminogen-binding group A Streptococcus (GAS) M-protein (S. pyogenes) (UniProt P49054); assay: SPR; PAM amine-coupled to a CM-5 chip (250 RU); hPg variants injected at 0.175-20 nM (up to 800 nM hPg [D219N]), multicycle kinetics, 180 s association, 300 s dissociation; HBS-EP+ (10 mM Na-Hepes/150 mM NaCl, 3 mM EDTA/0.05% polysorbate-20, pH 7.4), 25°C, Biacore X100; 1:1 Langmuir model
Sequence of UniProt P49054 (P49054 30-384): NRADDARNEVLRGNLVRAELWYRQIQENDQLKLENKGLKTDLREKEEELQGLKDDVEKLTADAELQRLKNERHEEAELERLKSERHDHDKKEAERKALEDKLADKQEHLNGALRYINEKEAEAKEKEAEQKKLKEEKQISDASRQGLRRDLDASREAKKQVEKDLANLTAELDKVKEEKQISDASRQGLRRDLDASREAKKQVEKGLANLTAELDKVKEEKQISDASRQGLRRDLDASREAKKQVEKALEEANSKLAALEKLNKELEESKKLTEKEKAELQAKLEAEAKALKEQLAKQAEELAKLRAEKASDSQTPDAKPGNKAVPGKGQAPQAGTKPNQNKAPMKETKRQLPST

[2] = biological target: streptokinase (Streptococcus pyogenes) (UniProt P10520); assay: binding saturation; details: cited from earlier work
Sequence of UniProt P10520 (P10520 27-440): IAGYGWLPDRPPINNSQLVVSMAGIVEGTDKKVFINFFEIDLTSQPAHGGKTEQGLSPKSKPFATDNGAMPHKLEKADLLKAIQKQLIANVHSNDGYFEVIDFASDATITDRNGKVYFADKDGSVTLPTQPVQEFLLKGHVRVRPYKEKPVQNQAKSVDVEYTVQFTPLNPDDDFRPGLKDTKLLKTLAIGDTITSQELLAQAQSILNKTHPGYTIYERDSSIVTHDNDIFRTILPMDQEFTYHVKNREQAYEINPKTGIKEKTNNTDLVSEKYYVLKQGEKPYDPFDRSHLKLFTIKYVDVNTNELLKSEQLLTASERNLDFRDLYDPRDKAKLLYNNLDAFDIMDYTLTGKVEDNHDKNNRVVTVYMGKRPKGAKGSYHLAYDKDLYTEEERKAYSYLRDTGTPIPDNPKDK

[3] = biological target: hPg [D^518N] (human); assay: SPR; each hPg variant amine-coupled to a CM-5 chip (~1200 RU); SK injected at 0.625-100 nM, multicycle kinetics, 90 s association, 120 s dissociation; HBS-EP+/50 μM NPGB, 25°C, Biacore X100; 1:1 Langmuir model
[4] = biological target: hPg [D^139,413,518N] (human); assay: as above
[5] = biological target: wild-type (WT) Glu^1-hPg (human plasminogen) (human); assay: as above
[6] = biological target: hPg [D^139N] (human); assay: as above
[7] = biological target: hPg [K^708A] (human); assay: as above
[8] = biological target: hPg [D^219N] (human); assay: as above
[9] = biological target: hPg [D^413N] (human); assay: as above
[10] = biological target: PAM, plasminogen-binding group A Streptococcus (GAS) M-protein (S. pyogenes) (UniProt P49054)

Which results are given for hPg [K^708A] (natural protein)?
pKd [1]: 8.92; koff [1]: 0.0012 s⁻¹; kon [1]: 970000 M⁻¹ s⁻¹

With hPg [D^139,413,518N] (natural protein) as the substance, how does the pKd [1] read?
The pKd was 9.15.

What about the koff [1] of the same substance?
The koff was 0.0017 s⁻¹.

And the kon [1]?
Its kon is 2.51e+06 M⁻¹ s⁻¹.

With hPg [D^413N] (natural protein) as the substance, how does the pKd [1] read?
The pKd was 9.15.

What about the koff [1] of the same substance?
The koff was 0.00094 s⁻¹.

And the kon [1]?
Its kon is 1.34e+06 M⁻¹ s⁻¹.

With Glu1-plasminogen (from UniProt P00747) as the substance, how does the pKd [2] read?
The pKd was 9.30.

With “mini-plasminogen mini-hPg (lacking K1-K4) (from UniProt P00747)” as the substance, how does the pKd [2] read?
Its pKd is 9.30.

What does the source list for streptokinase (SK) (natural protein)?
pKd [3]: 9.57; koff [3]: 0.00034 s⁻¹; kon [3]: 1.29e+06 M⁻¹ s⁻¹; pKd [4]: 8.68; koff [4]: 0.000449 s⁻¹; kon [4]: 206000 M⁻¹ s⁻¹; pKd [5]: 9.54; koff [5]: 0.000405 s⁻¹; kon [5]: 1.39e+06 M⁻¹ s⁻¹; pKd [6]: 9.55; koff [6]: 0.000302 s⁻¹; kon [6]: 1.13e+06 M⁻¹ s⁻¹; pKd [7]: 9.68; koff [7]: 0.000282 s⁻¹; kon [7]: 1.36e+06 M⁻¹ s⁻¹; pKd [8]: 9.52; koff [8]: 0.000466 s⁻¹; kon [8]: 1.55e+06 M⁻¹ s⁻¹; pKd [9]: 9.59; koff [9]: 0.000302 s⁻¹; kon [9]: 1.22e+06 M⁻¹ s⁻¹

For “wild-type (WT) Glu^1-hPg (human plasminogen) (natural protein)”, which rate of SK-mediated activation of hPg to hPm (S2251 hydrolysis), 250 nM PAM against 0 nM PAM [10] is on record?
Its rate of SK-mediated activation of hPg to hPm (S2251 hydrolysis), 250 nM PAM against 0 nM PAM is 4 fold.

And the pKd [1]?
The pKd was 8.27.

What about the koff [1] of the same substance?
The koff was 0.0013 s⁻¹.

And the kon [1]?
The kon was 240000 M⁻¹ s⁻¹.

With hPg [D^518N] (natural protein) as the substance, how does the pKd [1] read?
Its pKd is 8.17.

And the koff [1]?
Its koff is 0.0024 s⁻¹.

And the kon [1]?
Its kon is 360000 M⁻¹ s⁻¹.

For hPg [D^139N] (natural protein), which rate of SK-mediated activation of hPg to hPm (S2251 hydrolysis), 250 nM PAM against 0 nM PAM [10] is on record?
Its rate of SK-mediated activation of hPg to hPm (S2251 hydrolysis), 250 nM PAM against 0 nM PAM is 4 fold.

And the pKd [1]?
Its pKd is 8.40.

And the koff [1]?
Its koff is 0.0016 s⁻¹.

What about the kon [1] of the same substance?
Its kon is 410000 M⁻¹ s⁻¹.
